{"source": "paper PMC6342957", "about": "“Structural consequence of the most frequently recurring cancer-associated substitution in DNA polymerase ε”", "binders": {"B1": {"name": "KP11ddC/KT16 primer-template (dsDNA)", "DNA 1": "TAACCGCGTTC", "DNA 2": "CTCTTGAACGCGGTTA", "modifications": "3'-terminal dideoxy-C on primer"}}, "target": "T1, Pol2CORE P301R (DNA polymerase epsilon catalytic core) (Saccharomyces cerevisiae, UniProt P21951 1-1187, P301R)", "T1 sequence": "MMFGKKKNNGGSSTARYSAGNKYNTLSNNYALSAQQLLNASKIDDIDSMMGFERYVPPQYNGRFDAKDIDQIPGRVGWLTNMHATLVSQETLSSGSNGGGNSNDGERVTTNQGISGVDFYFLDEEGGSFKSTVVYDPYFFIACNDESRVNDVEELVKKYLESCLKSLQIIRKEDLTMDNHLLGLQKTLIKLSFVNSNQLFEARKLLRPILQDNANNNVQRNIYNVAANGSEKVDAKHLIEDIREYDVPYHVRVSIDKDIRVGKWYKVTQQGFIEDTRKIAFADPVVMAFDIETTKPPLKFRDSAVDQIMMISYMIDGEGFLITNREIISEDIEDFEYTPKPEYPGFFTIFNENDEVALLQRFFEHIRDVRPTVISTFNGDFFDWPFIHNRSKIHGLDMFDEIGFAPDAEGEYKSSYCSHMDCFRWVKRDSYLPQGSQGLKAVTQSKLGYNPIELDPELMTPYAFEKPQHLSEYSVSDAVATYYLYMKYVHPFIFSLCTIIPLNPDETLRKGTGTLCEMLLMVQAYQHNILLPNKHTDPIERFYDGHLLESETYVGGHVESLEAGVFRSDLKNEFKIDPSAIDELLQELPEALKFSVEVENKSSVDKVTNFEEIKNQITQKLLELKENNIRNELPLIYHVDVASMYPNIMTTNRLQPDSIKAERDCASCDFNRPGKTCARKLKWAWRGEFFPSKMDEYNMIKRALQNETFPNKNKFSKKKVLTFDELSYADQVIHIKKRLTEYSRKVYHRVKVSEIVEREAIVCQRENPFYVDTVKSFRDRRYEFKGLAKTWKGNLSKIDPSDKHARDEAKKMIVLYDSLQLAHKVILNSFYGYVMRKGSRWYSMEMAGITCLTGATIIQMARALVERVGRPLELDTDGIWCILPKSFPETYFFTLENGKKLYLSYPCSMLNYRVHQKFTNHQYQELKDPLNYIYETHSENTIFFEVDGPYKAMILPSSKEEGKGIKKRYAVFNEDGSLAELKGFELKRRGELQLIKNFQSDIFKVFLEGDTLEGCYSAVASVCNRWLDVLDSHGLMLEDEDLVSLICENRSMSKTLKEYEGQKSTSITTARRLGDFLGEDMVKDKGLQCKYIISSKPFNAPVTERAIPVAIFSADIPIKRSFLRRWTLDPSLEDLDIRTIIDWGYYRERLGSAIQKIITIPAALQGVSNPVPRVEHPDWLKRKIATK", "test": "X-ray crystallography; incoming dNTP; Ca2+ in exonuclease A-site; Crystallization conditions not in the material; protein stored in 25 mM Tris-Ac pH 7.5, 10% glycerol, 800 mM NaAc", "details": "protein: recombinant; tags: 6xHis removed with PreScission protease; 5' overhang 5 nt on template (recessed primer 3' end)", "data": [{"binder": "B1", "values": [{"measurement": "binding result", "value": "binds"}]}]}
